This note sets out measurements from US20180312564A1 (VERSITECH, published 2018).

The target of one experiment is T1, human PD-L2 (human, UniProt Q9BQ51 20-273).
T1 construct: whole, on cells; also called CD273; B7-DC
T1 sequence (looked up): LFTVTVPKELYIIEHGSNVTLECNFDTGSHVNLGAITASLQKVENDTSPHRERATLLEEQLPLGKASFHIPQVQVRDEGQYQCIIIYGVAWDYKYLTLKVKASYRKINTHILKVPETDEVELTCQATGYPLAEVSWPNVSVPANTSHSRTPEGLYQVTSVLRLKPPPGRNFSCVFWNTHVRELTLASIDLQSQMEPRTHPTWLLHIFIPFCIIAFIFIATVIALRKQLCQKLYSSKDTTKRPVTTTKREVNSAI
In words: flow cytometry on 293T cells transfected with human PD-L2, anti-rabbit Fc detection. A general note: A flow cytometer gives signals particle by particle.

In the next experiment the target is T2, human PD-L1 (human, UniProt Q9NZQ7 19-290).
T2 construct: whole, on cells; also called CD274; B7-H1
Kind of experiment: flow cytometry on 293T cells transfected with human PD-L1, anti-rabbit Fc detection.

T2 sequence (Q9NZQ7 19-290): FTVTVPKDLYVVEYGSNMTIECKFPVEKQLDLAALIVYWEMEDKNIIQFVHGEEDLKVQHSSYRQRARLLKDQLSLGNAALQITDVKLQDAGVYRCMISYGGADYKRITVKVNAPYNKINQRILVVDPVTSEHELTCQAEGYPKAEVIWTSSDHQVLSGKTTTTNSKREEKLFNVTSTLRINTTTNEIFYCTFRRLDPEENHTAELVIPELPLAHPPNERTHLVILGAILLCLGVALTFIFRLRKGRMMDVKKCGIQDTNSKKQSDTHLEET
Experimental for human PD-L1: (§1) The results were analyzed by flow cytometry using a detection antibody against rabbit Fc (color lines) or isotype control (black line). […] Percentage of cells with positive staining (solid line) is shown with corresponding antibodies and isotype control (shaded). Data are representative of three independent experiments.
Experimental for human PD-L2: as §1

B1: sΔ42PD1Fc (soluble Δ42PD1 fused with the rabbit IgG Fc domain) (Fc fusion)
chain: LALLVVTEGDNATFTCSFSNTSESFVLNWYRMSPSNQTDKLAAFPEDRSQPGQDCRFRVTQLPNGRDFHMSVVRARRNDSGTYLCGAISLAPKAQIKESLRAELRVTERRAEVPTAHPSPSPRPAGQLEATNTKVDKTVAPSTCSKPMCPPPELLGGPSVFIFPPKPKDTLMISRTPEVTCVVVDVSQDDPEVQFTWYINNEQVRTARPPLREQQFNSTIRVVSTLPIAHQDWLRGKEFKCKVHNKALPAPIEKTISKARGQPLEPKVYTMGPPREELSSRSVSLTCMINGFYPSDISVEWEKNGKAEDNYKTTPTVLDSDGSYFLYSKLSVPTSEWQRGDVFTCSVMHEALHNHYTQKSISHSPGK
Regarding B1, the binding result with human PD-L2 was “no binding (tested: 0.5, 2, 5 and 20 µg/ml)”; in the experiment with human PD-L1, “no binding (tested: 0.5, 2, 5 and 20 µg/ml)”.
